Test results as given in patent US9187525B2, “Methods of treating ophthalmic diseases using NPR-B agonists” (Shire Orphan Therapies GmbH, dated 2015).
Numbered stars: 1 amine (or outer) side, 2 acyl side, 3 side chain; on linkers, the order of the positions; unused ones are H or OH. Square brackets hold non-standard residues; d marks the D form. Ends that are not written are not given here. * marks the point of attachment. Dtp = (R)-2,2-dimethylthiazolidine-4-carboxylic acid, CC1(C)SC[C@@H](C(=O)[*:2])N1[*:1]; Ebe = (R)-2-amino-3-(methylsulfanyl)propanoic acid, CSC[C@H](N[*:1])C(=O)[*:2]; Sni = (S)-nipecotic acid, O=C([C@H]1CCCN([*:1])C1)[*:2]; Pro(trans-4-Ph) = O=C(O)[C@@H]1C[C@@H](c2ccccc2)CN1; Phe(3-Cl) = N[C@@H](Cc1cccc(Cl)c1)C(=O)O; Pro(cis-4-F) = O=C(O)[C@@H]1C[C@H](F)CN1; Pro(4S-NH2) = N[C@@H]1CN[C@H](C(=O)O)C1; cisHyp = O=C(O)[C@@H]1C[C@H](O)CN1; Hyp = O=C(O)[C@@H]1C[C@@H](O)CN1; NMeF = CN[C@@H](Cc1ccccc1)C(=O)O; tBuAla = CC(C)(C)C[C@H](N)C(=O)O; Cha = N[C@@H](CC1CCCCC1)C(=O)O; NMeL = CN[C@@H](CC(C)C)C(=O)O; d(αMeP) = C[C@]1(C(=O)O)CCCN1; hLeu = CC(C)CC[C@H](N)C(=O)O; Nle = CCCC[C@H](N)C(=O)O; Octanoyl = CCCCCCCC(=O)*; Nva = CCC[C@H](N)C(=O)O; dAze = O=C(O)[C@H]1CCN1; Hexanoyl = CCCCCC(=O)*; Ac3c = NC1(C(=O)O)CC1; Aib = CC(C)(N)C(=O)O; Occ = octanoic acid; Sar = CNCC(=O)O

T1: natriuretic peptide receptor-B (human)
T1 chain: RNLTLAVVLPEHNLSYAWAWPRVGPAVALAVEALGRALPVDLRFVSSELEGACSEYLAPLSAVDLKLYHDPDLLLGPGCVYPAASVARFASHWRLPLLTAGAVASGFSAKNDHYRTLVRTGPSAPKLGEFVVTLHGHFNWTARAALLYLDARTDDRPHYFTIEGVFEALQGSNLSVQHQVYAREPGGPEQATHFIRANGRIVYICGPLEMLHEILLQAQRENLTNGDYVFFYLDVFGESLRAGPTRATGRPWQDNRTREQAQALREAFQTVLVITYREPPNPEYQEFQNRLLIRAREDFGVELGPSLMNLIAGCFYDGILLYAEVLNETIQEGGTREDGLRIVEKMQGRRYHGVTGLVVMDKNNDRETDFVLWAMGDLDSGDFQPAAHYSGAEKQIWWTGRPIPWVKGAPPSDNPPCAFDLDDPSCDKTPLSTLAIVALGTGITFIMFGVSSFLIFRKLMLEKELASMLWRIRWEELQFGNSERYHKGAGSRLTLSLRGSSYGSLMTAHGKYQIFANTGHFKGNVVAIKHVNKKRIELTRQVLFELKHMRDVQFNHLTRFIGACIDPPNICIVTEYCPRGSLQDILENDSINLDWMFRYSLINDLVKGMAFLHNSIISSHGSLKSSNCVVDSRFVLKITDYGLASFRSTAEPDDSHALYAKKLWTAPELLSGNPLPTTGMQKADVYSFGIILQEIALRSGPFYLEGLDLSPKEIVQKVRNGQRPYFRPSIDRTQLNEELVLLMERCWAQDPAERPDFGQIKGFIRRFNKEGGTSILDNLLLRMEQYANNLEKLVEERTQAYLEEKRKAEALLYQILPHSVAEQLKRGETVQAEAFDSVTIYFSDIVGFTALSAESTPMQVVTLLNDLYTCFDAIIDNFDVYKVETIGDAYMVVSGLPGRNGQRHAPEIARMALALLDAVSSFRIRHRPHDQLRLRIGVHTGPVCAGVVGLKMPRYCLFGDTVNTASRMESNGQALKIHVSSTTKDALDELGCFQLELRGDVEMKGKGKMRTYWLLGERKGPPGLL

B1: JAL-0975 (peptide)
peptide: [Occ]AFGL[Pro(trans-4-Ph)]LDRI-NH2
modifications: not fully specified (residue 2); printed as Occ-ala-Phe-Gly-Leu-Eay-Leu-Asp-Arg-Ile-NH2
B2: JAL-0951 (peptide)
peptide: [Occ]GFGLPLDRI-NH2
B3: JAL-0946 (peptide)
peptide: [Occ][dA][Phe(3-Cl)]GLPLDRI-NH2
B4: JAL-0926 (peptide)
peptide: [Occ]AFGLPL[Nva]RI-NH2
modifications: not fully specified (residue 2); printed as Occ-ala-Phe-Gly-Leu-Pro-Leu-Nva-Arg-Ile-NH2
B5: JAL-0943 (peptide)
peptide: [Occ]AF[Aib]LPLDRI-NH2
modifications: not fully specified (residue 2); printed as Occ-ala-Phe-Aib-Leu-Pro-Leu-Asp-Arg-Ile-NH2
B6: JAL-0940 (peptide)
peptide: [Occ]AFG[Cha]PLDRI-NH2
modifications: not fully specified (residue 2); printed as Occ-ala-Phe-Gly-Cha-Pro-Leu-Asp-Arg-Ile-NH2
B7: JAL-0956 (peptide)
peptide: [Occ][Sni]FGLP[NMeL]DRI-NH2
B8: JAL-0944 (peptide)
peptide: [Occ][dA]F[dA]LPLDRI-NH2
B9: JAL-0924 (peptide)
peptide: [Occ]AFGLPLNRI-NH2
modifications: not fully specified (residue 2); printed as Occ-ala-Phe-Gly-Leu-Pro-Leu-Asn-Arg-Ile-NH2
B10: JAL-0953 (peptide)
peptide: [Occ][dAze]FGLPLDRI-NH2
B11: JAL-0906 (peptide)
peptide: [Occ]AXGLPLDRI-NH2
modifications: not fully specified (residues 2, 3); printed as Occ-ala-Nmf-Gly-Leu-Pro-Leu-Asp-Arg-Ile-NH2
B12: JAL-0979 (peptide)
peptide: [Occ]AFGL[Dtp]LDRI-NH2
modifications: not fully specified (residue 2); printed as Occ-ala-Phe-Gly-Leu-Dtp-Leu-Asp-Arg-Ile-NH2
B13: JAL-0927 (peptide)
peptide: [Occ]AFGLPLVRI-NH2
modifications: not fully specified (residue 2); printed as Occ-ala-Phe-Gly-Leu-Pro-Leu-Val-Arg-Ile-NH2
B14: JAL-0967_01 (peptide)
peptide: [Occ][Sni][NMeF]GLPLDRI-NH2
B15: JAL-0966 (peptide)
peptide: [Occ][dP][NMeF]GLPLDRI-NH2
B16: JAL-0903 (peptide)
peptide: Octanoyl-AFG[tBuAla]PLDRI-NH2
modifications: not fully specified (some residues); printed as Occ-ala-Phe-Gly-Npg-Pro-Leu-Asp-Arg-Ile-NH2
B17: JAL-0945 (peptide)
peptide: [Occ][dA]F[Ac3c]LPLDRI-NH2
B18: JAL-0959 (peptide)
peptide: [Occ][dA]FGLP[hLeu]DRI-NH2
B19: JAL-0896 (peptide)
peptide: Octanoyl-AFGLP[tBuAla]DRI-NH2
modifications: not fully specified (some residues); printed as Occ-ala-Phe-Gly-Leu-Pro-Npg-Asp-Arg-Ile-NH2
B20: JAL-0957 (peptide)
peptide: [Occ][dP][NMeF]GLP[NMeL]DRI-NH2
B21: JAL-0894 (peptide)
peptide: Octanoyl-AFGLPIDRI-NH2
modifications: not fully specified (some residues); printed as Occ-ala-Phe-Gly-Leu-Pro-Ile-Asp-Arg-Ile-NH2
B22: JAL-0954 (peptide)
peptide: [Occ][dA][NMeF]GLP[NMeL]DRI-NH2
B23: JAL-0895 (peptide)
peptide: Octanoyl-AFGLP[NMeL]DRI-NH2
modifications: not fully specified (some residues); printed as Occ-ala-Phe-Gly-Leu-Pro-Nml-Asp-Arg-Ile-NH2
B24: JAL-0958_01 (peptide)
peptide: [Occ][Sni][NMeF]GLP[NMeL]DRI-NH2
B25: JAL-0950 (peptide)
peptide: [Occ][Sar]FGLPLDRI-NH2
B26: JAL-0533 (peptide)
peptide: Hexanoyl-[Ebe][dP]FGLPIDRIS[Ebe]-NH2
B27: JAL-0898 (peptide)
peptide: Octanoyl-AFGL[Hyp]LDRI-NH2
modifications: not fully specified (some residues); printed as Occ-ala-Phe-Gly-Leu-Hyp-Leu-Asp-Arg-Ile-NH2
B28: JAL-0921 (peptide)
peptide: [Occ]AFGLPLD[Nmr]I-NH2
modifications: not fully specified (residue 2); printed as Occ-ala-Phe-Gly-Leu-Pro-Leu-Asp-Nmr-Ile-NH2
B29: JAL-0962 (peptide)
peptide: [Occ][dA]FGL[d(αMeP)]LDRI-NH2
B30: JAL-0955_01 (peptide)
peptide: [Occ][dP]FGLP[NMeL]DRI-NH2
B31: JAL-0964 (peptide)
peptide: [Occ][dA]FGL[cisHyp]LDRI-NH2
B32: JAL-0978 (peptide)
peptide: [Occ]AFGL[Pro(cis-4-F)]LDRI-NH2
modifications: not fully specified (residue 2); printed as Occ-ala-Phe-Gly-Leu-Fpr-Leu-Asp-Arg-Ile-NH2
B33: JAL-0974 (peptide)
peptide: [Occ]AFGL[Pro(4S-NH2)]LDRI-NH2
modifications: not fully specified (residue 2); printed as Occ-ala-Phe-Gly-Leu-Apr-Leu-Asp-Arg-Ile-NH2
B34: JAL-0942 (peptide)
peptide: [Occ]AFG[Nle]PLDRI-NH2
modifications: not fully specified (residue 2); printed as Occ-ala-Phe-Gly-Nle-Pro-Leu-Asp-Arg-Ile-NH2
B35: JAL-0929 (peptide)
peptide: [Occ]AFGLPLTRI-NH2
modifications: not fully specified (residue 2); printed as Occ-ala-Phe-Gly-Leu-Pro-Leu-Thr-Arg-Ile-NH2

Biological target: T1, natriuretic peptide receptor-B
Assay: cell-based or functional assay

Binder	EC50 group, cGMP in GTM-3 cells [µM]
B1	≤ 15
B2	≤ 15
B3	≤ 15
B4	≤ 15
B5	≤ 15
B6	≤ 15
B7	≤ 5
B8	≤ 15
B9	≤ 15
B10	≤ 5
B11	≤ 15
B12	≤ 15
B13	≤ 15
B14	≤ 15
B15	≤ 15
B16	≤ 15
B17	≤ 15
B18	≤ 15

Binder	EC50 group, cGMP in GTM-3 cells [µM]
B19	≤ 15
B20	≤ 15
B21	≤ 15
B22	≤ 5
B23	≤ 5
B24	≤ 5
B25	≤ 15
B26	≤ 15
B27	≤ 5
B28	≤ 15
B29	≤ 15
B30	≤ 5
B31	≤ 15
B32	≤ 15
B33	≤ 5
B34	≤ 15
B35	≤ 15
